Data: the domain aggregation screens of Martell et al. (2025)

Experiment: soluble fraction after stress (log2 fold change); higher = more stays soluble; pooled small domains, quantitative proteomics
Conditions: stress: pH 4
Outline: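 How much of each domain stays soluble after acid stress, expressed as a fold change, is used to gauge aggregation propensity. Pooled custom libraries of small domains underwent pH 4 stress before high-throughput quantitative proteomics. A higher log2 value means more of the domain stayed soluble.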

| Sequence | soluble fraction (log2) |
| --- | --- |
| HMAPVLTATVNTTSGKLNMRAAASATSAKLTSIPRGATVTVLEKGTTWSRISYGGYTGYVMTQYLKFD | -0.575 |
| HMAPVVELEDVTIVRGKATLLDRVNWVIDETDRWVIVGPNGAGKTTLLQVVSANLHPTSGKAMILDEVL | -0.366 |
| HMAQILEPSVALKKLLELKQAGFEDETLVGWIRKVEFTRPLTPDDLLEWKGAGISQAVIRAAM | 0.00449 |
| HMAQISDEGLLRGLIVEMFEANPAVVEELLGGRDRKKGFVIGQIMKKTKGMANPALLDQLFYEELEKL | -1.31 |
| HMAQTEIPYSEFLREVGNGQIKSVIIEGSEITGFYKTSGTSFNVVAPDDPKLVERLMDQGVEVRAQPT | 0.193 |
| HMAQVVMPNVVGKTEKDATATLEGKNLKVNVEYNLDATSDDGIVKEQSIKSGENIDEGTEITLKVNKV | -1.69 |
| HMAQWGFNGSEAGDLSFQQGDVIEVVEKVKDDWWRGRVLGSTEIGLFPS | -1.64 |
| HMARDDVIRLVQLSLDHLPAKYADALEWKYVEGLSTKEIAARLELGSEAAESLLARARRAFKNDFQEIFES | -0.47 |
| HMAREFPGTIIKRGSRGPDVRWIQQHIGVKLVDGVFGRGTERAVKQFQSRRRLKADGIVGRQTWAAIHN | ≥ 0.43 |
| HMARGATELPYSQLLDRVEAGEITTATTQGNTLLSTARDGKRYITYLPLDTMDEVVPRLDAANVEVKTER | -0.123 |
| HMARGLRPVPSVFGLDVRQATRTLYAAGFQVSIARGSDVRTRPAAGTLLRVGSTVQLEMPRMESA | -0.000244 |
| HMARGTRTRAKLLAAAEVVFARYGYTEASIERITEEAGVGQGTFYLYFASKLEIFEELVDDLNR | -1.07 |
| HMARLEELSNGSIVEGLLSGEAVTVVSTKWYGSSSMEVFYKTNRGSTGSQILYREDEPSLTVLEKS | -0.425 |
| HMARPLHVDALIHLGTEIGSRVGGAHAGPHLLVAGHSPMSELVYARLLGIPTLGWMRGQLTFVNLSK | 0.108 |
| HMARSKSRQSSVLESVPGLGPSRRRNLLRHFGGLQGVVKAGVEDLMAVRGISRTLAETVYDHLHPGS | 0.22 |
| HMARTIINLPLRNSVDESYNTTVNILQANGFKEVSYNGETVWKKGTGLLTAMQYIKIEFTDTTLVVSGWVQ | -0.11 |
| HMARTLSVTVSENYANMRLDSFLFESGLYPSRSKAVKQIESGKVFVNGNEPTKKTIVVANDFIVYEEYAEE | -1.15 |
| HMARTTIATPWDKINDLLQGGLGNGDFGLIFGNPGGGKSWSLVALGGFAVKLGYNVIHYTLE | -1.35 |
| HMASAEDDLTRRARKLLTTSSMLKTLQPDTGERLQWLPQVVRLLAEGVEAPRIVVLIRRAMESG | -0.00608 |
| HMASALDFGRYVRSQYSLQEFPLILIAPLNDPHPKEVVRELFNLYLTKPITRSRLFDSLMTVLG | -0.499 |
| HMASDQGAGALREVSAFFEKHGRVPDPDAVDHDEMRLGSIWASIKSAPTDQMRLEDRFGLLD | -0.613 |
| HMASDYYTTTANLNLRSGAGTTYGSLIIIEKGDTVKLLENVNDHWVKIQYDDKIGYVAMSYLLPIE | -0.113 |
| HMASEKSEQLYQQMKLDIAGMPPDTRLPSIRALMRSYSVSQLLIDRTLGRLREEGALRKRFDGLYTYL | -0.0945 |
| HMASELQQVQALLESQRYNEALILIETTIGKGASESTELLFARADVFASSGRHDEAEQAYREL | -0.45 |
| HMASELVSADEKYSGLVSYLLGRVVVVDQIDHAIALAKKYRYSLRIVTLDGELLSPGGSMTGGAFKNS | 0.2 |
| HMASEVEVPNVYGMPSSLAERELSAVGLLADYRSRTGTGQQPGTVVHVKPDAGTVVSRGSTVVLFIA | 0.138 |

| Sequence | soluble fraction (log2) |
| --- | --- |
| HMASFASRAEEVMTKLLANGQPRIKEVADAMHLSSRTLQRRLEREGVSFAELLDRLRKRLAHDMLAHS | ≥ 0.43 |
| HMASFGDLSGLKRTYPPQGLPDASRIADFLIARNEGDLSVEQVKALERFLFEHPDHERTARLVAATRVPA | -0.115 |
| HMASFTDAQALEVKDLYPDWSKIPEGTHLEAGQRVRYNGNLYKVRTGQAHDKQSTWTPTDAASLFEAID | 0.0558 |
| HMASIEPLKTSIRIIWYINGEKDSETLLNTPPTAANKANAQKIADMVEQQIQMGIFNRDAVFPSSPKRQ | -0.559 |
| HMASIGVGTIVRVANAVNYNGVKVKAWFNDEGYEVTELSGDRAVLKHNGDLFDAFHVSDLEA | -0.771 |
| HMASINRIENKNGKVVYRIIVSLGYDKQGKKLKKTITYNVNQTATKKQQENEALKYALDIEDKIKNGHD | -0.138 |
| HMASITLDQAKEIALTHAGQTADAVWFEKAEQDYDDGILVYELEFAAKGTEYEYEIDAQTGAIREYKWDD | 0.0206 |
| HMASLSEREHDVAVLILQGKTYAEIGQAIFISPRTVEHHVASIRRRLEAKSRSDLIAKLRLTIGGTED | -1.15 |
| HMASPTKQLVLEALRASGQPMSSMELSAQIGVSRATAQRYLSTLASAGEVKIQLRYGTTGRPEQEFLAIE | 0.22 |
| HMASQFSLIVTQADAGMRLDSLLAVSGAYPSRSAAVKQIEAGKVLVNGLARSKRSIVAPGDTIVYEEIP | -0.0502 |
| HMASQVERGAVVVTDQRIFFIGVSSEGIEVHGTKIFGMSEKAPLYSHMKGLKKGDSFQFNGLKYVIQDIY | -0.916 |
| HMASRKTERINRLIDVLQHATSRVPASVLSKILGIGERSVRNYVSEVNEQGQFRIDSSSGGYRLVA | -0.0154 |
| HMASRTLSYSEFMSRVDSGDVTSVTLDGERIIMRTSNNQEFLSIKPEGEDISERLLAKNIEVRAEAQQ | -1.58 |
| HMASVGTHIKRLRAAKRMTQEELAEQLHVTRQAVSAWETGKALPDVEMLERIAAALDADVTEVIYGA | -0.24 |
| HMATAATGIINNNYVNVRSGPATTYNIVGRLDQGSSIEILGSKNDWYQIKTKQLNGWVKNDFINLQK | 0.14 |
| HMATETELNLQLMRIIDELHTDHNTWGSRKITDYLRLQGYEINRKRIQRLMDVMDIQVVYPK | -0.00483 |
| HMATEVEVPDVVGRQMALATQLLEARKLRVNVAEIYDEKTPPGQVVSQSPEAGSSVKEERVVTIYVSR | 0.158 |
| HMATGGKIYIGMNDNGKVVGVSDADKLLEDIPNKVRDVLGIIVDVNLLEENGLKYIEIDVPPYSN | -0.477 |
| HMATGIKAVDNVFGWMNLEQVAKTVGLDIPSVLRASGLPEDTPVDISIKKIPGVDDEELKDSLRQYIEKS | -0.237 |
| HMATGTVKWFNPNKGFGFIQQDDASKDVFVHSNELNGVYINEGDKVEFDVVETEKGLSAQNIKK | 0.0939 |
| HMATHGRRAVIELREKIVSGELPGGTRLFEVSLAETLDISRTPVREALSRLAEEGLLDRLPNGGFVVRR | -1.39 |
| HMATIGVGSKVTLTTYVDWVGNGLLKTRDFYFVSELNGKRAVLRADSMNGAIYAAVNIDNLRI | -0.103 |
| HMATINGIEKYLSSGLIPGIGPHTAKKLVEKFGLDTLDIMQYNPDRLTEVEGIGDKKAAKISEAFQEQK | -0.191 |
| HMATKVNSGVTVRDLAELLGLSSADLIKKLMTMGEMATLTQTLTDDSVKAIADEYDRKIEIVSAAQ | -0.771 |
| HMATLTPLGRLQLARYHAQERATLAATAERFQVSTTTVRRWVGRYHQVVAAGGRPTTADMQDRPSRP | -0.00504 |
| HMATMSIDERILEIRSRAGLTQQEMADRLFVTRQAVSRWERGETVPGIDTLRLIAEAFDVRVDQILEL | -1.11 |

| Sequence | soluble fraction (log2) |
| --- | --- |
| HMATQMSSARRGIATDEMKQVAKDEDVTLDWLLPKIAIGSIIIPSNNVRPQKIHNVGIGKGMKTKVN | -0.246 |
| HMATTTEPTSPPAATASLEAKINWLFLIFRNKKTVTASEQKFHAEDASTVVGKETLTDDGTTMTKGETAAG | -0.437 |
| HMATVELELKPEELRAGMILTKDLISGTGMMLLNKGVTLDNVKVEAIQRYYQLDPPLHGVFALVHGK | -0.896 |
| HMATVGENIRRYRKAQNLSAAKLAEKVGLTQGAILHYERGIRTPGISQLEKIAHALNVSPRM | 0.114 |
| HMATVPNVVGLSEEKAKSRLANNGLNVSVTTEEVSDKSKDGIVSSQTSEGDTVKQGATITITVGKYVEK | -0.0691 |
| HMATYDIDALKVDLPSAKELAQFVYDKTDGLVSLDLIGKPKEEQYIVAKNALEGKKVPAEYLTGFNPY | -0.273 |
| HMATYTPYDKQGAKLWRVTAYLGMDSVTGKQRNMKKGGFKTKKEAQLYYNQVKLDFENGTLDQ | 0.22 |
| HMAVEQLKSQIGGFLKANREQSFSAQNMADGLRMNSAAGYQDVVNAMNALVRDGEAVEKDGQFSYNVN | -0.0292 |
| HMAVETYRVKKSDTMQTIADRFGLSVEELLEYNQAYKTRELRARDILIIPSRKERKKLQQQKAQAAAQVVQ | 0.404 |
| HMAVGTASNLIGKDIEAYAPIDGSQSSDDTKTISGKVESVHIKDGVVYMNVKDSQSENIIEVEYGALIKVN | 0.247 |
| HMAVKPIDRLRSLMAESNVTDAELQKVVADKGHYAADAPIDSYSEKFISGWLIKYWSQILNLINADRTVL | -0.0558 |
| HMAVKTEHGRIWKALPEGQDGYREDVPMFTSKSMYDGSAGIGIFLIRLYEATSDERWLKEAEEAAAHII | 0.308 |
| HMAVLEGPAGKLGIVRFEANRSFTGMGHERFSSADQAFGTKPAAVVASRLFATGQVAGVHVYGNIITVELA | ≥ 0.43 |
| HMAVNDPDEKFIELGIPADWVQVVRKAGFQTVEALKTVENPNKLHQELSGLNKKMKLGLKTLSQDEVKDWF | -0.0206 |
| HMAVPMTPGELVGSRVRVLWWKDGRGEVVALARGHQATLPARSEEPLRTGADAVVLEADEGTLVVTS | -0.192 |
| HMAVSGRMMVYEYIRQQMREGSLLPGSVLDLPAISHKLGISNTPLRDSLIRLEAEGYLTIYPRSKVVIN | -0.254 |
| HMAVTGRVDLRIKPWGYVSVDGAAKVSSPPTMQLKLAPGRHEIEITNPAGAAVTKTVDVIAGKSVTVQHN | 0.19 |
| HMAVTKVKVITESSNLNIRKGPGTDQPIVGKAAHHEIITLVNKSNDQWWLVRTNDGEEGYSYSRYLEPVT | -0.153 |
| HMAVVEVATTTATEYKVEKGHHFKVGDFVMFKTGAKSYAITAIDTTSPIFDKITVGTTLGEAIPVGGTLM | -1.45 |
| HMAVVIPDVKGMTIEEAAPFLAEKGIRYNIIDSVFSKDVDPGAIVEIVPTPGSKVKEGRIVFVTINAK | -0.774 |
| HMAVVQMVDRPGGLDELLKDVVRAGVNFANAYGRTASDGNSAFFVIDIQDIPGARQKLADVGLQILADEAV | -0.512 |
| HMAWAVDVGVVGLFPGKAVLVIDGGAPRTVPVGANVGGVRLLAVDQGSATVEIGGKRQRLAIGQHAH | 0.22 |
| HMAWIGEHTVTSEDTLSHIALKFYGHATPPYYKLIYEANKAIIGDNMNIIVPGQVLRIPALPEEL | -0.592 |
| HMAYLTVPAVIAKDTKKSIQLLESKGFEVVIQDSIYTDTLARGTVIKQLPDPNATVKINRTVYLTVNRYTP | -0.369 |
